Results reported in article PMC3378891.

T1: FANCI (chicken, UniProt B0I564 1-1338)
T1 sequence: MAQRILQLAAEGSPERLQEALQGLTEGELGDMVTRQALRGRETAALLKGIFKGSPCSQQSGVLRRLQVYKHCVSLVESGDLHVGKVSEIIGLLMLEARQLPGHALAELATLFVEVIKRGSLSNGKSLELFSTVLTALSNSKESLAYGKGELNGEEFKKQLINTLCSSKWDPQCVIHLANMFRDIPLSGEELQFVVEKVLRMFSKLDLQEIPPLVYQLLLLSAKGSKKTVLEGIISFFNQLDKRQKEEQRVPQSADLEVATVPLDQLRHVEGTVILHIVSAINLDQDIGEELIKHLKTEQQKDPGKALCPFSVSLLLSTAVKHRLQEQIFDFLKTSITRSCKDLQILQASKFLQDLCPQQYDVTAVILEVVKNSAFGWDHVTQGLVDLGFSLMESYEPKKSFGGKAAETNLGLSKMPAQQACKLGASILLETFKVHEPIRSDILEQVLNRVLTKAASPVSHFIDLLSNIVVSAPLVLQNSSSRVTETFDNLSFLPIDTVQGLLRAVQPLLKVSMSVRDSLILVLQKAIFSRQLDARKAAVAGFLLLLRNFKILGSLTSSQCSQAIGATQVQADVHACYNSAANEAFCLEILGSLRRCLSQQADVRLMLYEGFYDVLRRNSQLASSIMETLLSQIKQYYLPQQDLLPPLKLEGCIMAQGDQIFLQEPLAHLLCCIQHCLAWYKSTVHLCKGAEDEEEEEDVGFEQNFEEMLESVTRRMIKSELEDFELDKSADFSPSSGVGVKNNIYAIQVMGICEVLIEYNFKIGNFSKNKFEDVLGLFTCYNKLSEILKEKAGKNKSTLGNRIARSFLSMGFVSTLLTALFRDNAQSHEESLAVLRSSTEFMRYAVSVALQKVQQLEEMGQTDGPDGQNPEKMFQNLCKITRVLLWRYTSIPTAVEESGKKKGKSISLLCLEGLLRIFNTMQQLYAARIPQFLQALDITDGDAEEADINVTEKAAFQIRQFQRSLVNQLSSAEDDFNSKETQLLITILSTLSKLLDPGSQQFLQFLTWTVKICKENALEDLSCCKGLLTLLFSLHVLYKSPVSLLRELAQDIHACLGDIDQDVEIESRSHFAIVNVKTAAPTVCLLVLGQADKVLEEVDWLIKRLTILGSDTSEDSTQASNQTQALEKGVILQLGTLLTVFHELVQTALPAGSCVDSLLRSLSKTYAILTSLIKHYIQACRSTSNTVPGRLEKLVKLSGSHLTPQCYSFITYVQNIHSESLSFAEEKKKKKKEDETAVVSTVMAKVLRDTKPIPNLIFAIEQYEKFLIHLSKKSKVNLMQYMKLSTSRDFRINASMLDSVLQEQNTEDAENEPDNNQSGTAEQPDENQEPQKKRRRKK

T2: GST-FANCL (chicken, UniProt Q3MUH5 1-373)
T2 sequence: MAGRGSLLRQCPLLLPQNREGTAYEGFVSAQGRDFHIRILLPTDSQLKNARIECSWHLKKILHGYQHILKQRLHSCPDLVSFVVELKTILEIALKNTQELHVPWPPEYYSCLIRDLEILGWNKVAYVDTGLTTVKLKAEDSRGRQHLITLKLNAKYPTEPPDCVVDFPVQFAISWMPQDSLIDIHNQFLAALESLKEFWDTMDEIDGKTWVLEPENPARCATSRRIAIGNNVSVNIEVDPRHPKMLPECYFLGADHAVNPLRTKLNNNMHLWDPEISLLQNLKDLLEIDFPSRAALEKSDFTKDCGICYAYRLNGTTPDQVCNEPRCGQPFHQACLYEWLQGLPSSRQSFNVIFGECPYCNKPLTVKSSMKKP

B1: synthetic Holliday junction (HJ) (structured_DNA)
DNA 1: ATCGATGTCTCTAGACAGCTGCTCAGGATTGATCTGTAATGGCCTGGGA
DNA 2: GTCCCAGGCCATTACAGATCAATCCTGAGCATGTTTACCAAGCGCATTG
DNA 3: TGATCACTTGCTAGCGTCGCAATCCTGAGCAGCTGTCTAGAGACATCGA
DNA 4: CCAATGCGCTTGGTAAACATGCTCAGGATTGCGACGCTAGCAAGTGATC
B2: 5' flapped DNA (structured_DNA)
DNA 1: B1 DNA 1
DNA 2: B1 DNA 2
DNA 3: CAATGCGCTTGGTAAACA

Columns and labels:
Assay in all cases: EMSA
FANCI = target: T1, FANCI
FANCI;FANCD2 = FANCI;FANCD2 (chicken;chicken, UniProt B0I564;Q68Y81 1-1338;1-1439, |)
UBE2T = UBE2T (human, UniProt Q9NPD8 1-197)
GST-FANCL = target: T2, GST-FANCL

FANCI;FANCD2, sequence (Q68Y81 whole entry, one chain of several): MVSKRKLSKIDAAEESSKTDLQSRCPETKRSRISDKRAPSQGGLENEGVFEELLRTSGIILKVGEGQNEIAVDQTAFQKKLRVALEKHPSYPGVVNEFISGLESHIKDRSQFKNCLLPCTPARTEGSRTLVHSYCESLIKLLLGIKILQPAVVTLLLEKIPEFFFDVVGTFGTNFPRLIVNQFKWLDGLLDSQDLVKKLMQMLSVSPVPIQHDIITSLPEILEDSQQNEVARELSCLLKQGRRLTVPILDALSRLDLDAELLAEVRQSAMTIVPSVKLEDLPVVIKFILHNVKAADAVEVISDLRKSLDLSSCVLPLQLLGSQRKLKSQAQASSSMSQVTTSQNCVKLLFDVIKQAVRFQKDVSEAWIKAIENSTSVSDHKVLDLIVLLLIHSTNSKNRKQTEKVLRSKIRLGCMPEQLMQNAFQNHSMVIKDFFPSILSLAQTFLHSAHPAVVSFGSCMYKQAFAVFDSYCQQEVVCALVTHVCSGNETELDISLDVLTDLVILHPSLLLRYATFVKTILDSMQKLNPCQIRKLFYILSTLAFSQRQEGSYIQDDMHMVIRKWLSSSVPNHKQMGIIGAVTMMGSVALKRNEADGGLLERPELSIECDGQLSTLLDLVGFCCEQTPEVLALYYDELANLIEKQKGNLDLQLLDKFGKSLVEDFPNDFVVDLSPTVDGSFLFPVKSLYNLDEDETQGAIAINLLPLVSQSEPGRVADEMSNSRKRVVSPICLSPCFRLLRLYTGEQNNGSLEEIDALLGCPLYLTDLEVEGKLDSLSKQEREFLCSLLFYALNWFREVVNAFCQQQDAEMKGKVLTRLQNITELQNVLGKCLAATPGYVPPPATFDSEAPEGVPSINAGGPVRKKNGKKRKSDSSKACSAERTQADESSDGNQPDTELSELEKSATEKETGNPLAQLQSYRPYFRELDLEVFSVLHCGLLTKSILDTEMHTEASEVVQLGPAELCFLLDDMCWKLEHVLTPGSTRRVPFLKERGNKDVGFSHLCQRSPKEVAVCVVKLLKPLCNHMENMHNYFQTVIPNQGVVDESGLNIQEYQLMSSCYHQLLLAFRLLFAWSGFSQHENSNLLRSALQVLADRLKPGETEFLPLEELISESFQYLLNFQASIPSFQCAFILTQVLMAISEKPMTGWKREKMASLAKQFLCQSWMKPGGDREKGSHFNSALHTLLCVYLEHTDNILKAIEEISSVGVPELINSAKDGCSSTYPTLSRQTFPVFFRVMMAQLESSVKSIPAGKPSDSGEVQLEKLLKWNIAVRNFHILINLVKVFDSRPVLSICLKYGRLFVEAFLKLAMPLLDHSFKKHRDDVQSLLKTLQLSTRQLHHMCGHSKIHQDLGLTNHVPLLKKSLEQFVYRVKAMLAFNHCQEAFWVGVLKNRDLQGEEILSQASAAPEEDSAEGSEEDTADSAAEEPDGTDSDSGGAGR
UBE2T, sequence (Q9NPD8 whole entry): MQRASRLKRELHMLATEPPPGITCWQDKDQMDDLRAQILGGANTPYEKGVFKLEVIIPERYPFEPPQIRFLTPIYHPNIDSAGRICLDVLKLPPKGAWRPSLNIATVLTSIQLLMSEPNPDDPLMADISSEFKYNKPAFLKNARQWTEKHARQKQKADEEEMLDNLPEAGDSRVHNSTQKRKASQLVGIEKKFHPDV

| Binder | binding result (FANCI) | binding result (FANCI;FANCD2) | binding result (UBE2T) | binding result (GST-FANCL) |
| --- | --- | --- | --- | --- |
| B1 | binds | – | – | – |
| B2 | – | binds | no binding | no binding |
